Measurements reported in US20250250357A1 (NANJING ZAIMING PHARMACEUTICAL, published 2025).
Changes are numbered by the printed parent chain. Each block holds one binder with its values, some of them ahead of it.

Columns and labels:
[1] = molecular target: T1, human MSLN-R2-his protein (human, UniProt Q13421 391-486); assay: ELISA on coated MSLN-R2; antibody 0.01 nM
T1 construct: Region 2 of human mesothelin, made in HEK293E cells, His-tagged; also called human MSLN-R2 protein; hMSLN-R2-his; not shown: His tag
T1 sequence (Q13421 other isoform, or with tags, fused parts or gaps): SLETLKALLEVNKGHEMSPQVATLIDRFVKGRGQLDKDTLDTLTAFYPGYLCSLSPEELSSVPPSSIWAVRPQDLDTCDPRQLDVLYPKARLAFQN

[2] = molecular target: T2, human MSLN-R3-his protein (human, UniProt Q13421 487-598); assay: ELISA on coated MSLN-R3; antibody 0.1 nM
T2 construct: Region 3 of human mesothelin, made in HEK293E cells, His-tagged; also called human MSLN-R3 protein; hMSLN-R3-his; not shown: His tag
T2 sequence (Q13421 495-606): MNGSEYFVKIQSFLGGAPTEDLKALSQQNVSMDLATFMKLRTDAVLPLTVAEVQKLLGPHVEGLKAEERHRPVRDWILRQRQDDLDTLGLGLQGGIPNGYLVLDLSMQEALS

[3] = molecular target: T1, human MSLN-R2-his protein; assay: ELISA on coated MSLN-R2; antibody 0.001 nM
Experimental: (§1) The plate was sealed with a plastic film and incubated at 4° C. overnight. The next day, the plate was washed twice with PBST, and a blocking buffer [PBS+2% (w/w) BSA] was added for blocking at room temperature for 2 h. The blocking buffer was discarded, and a chimeric antibody or negative control antibody serially diluted from 100 nM was added at 50 μL/well. After incubation at 37° C. for 2 h, the plate was washed 3 times with PBST. […] After incubation at 37° C. for 2 h, the plate was washed 5 times with PBST. A TMB substrate was added at 50 μL/well for incubation at room temperature for 5-10 min, and then a stop solution (1.0 N HCl) was added at 50 μL/well.

[4] = molecular target: T3, human MSLN-R1-his protein (human, UniProt Q13421 296-390); assay: ELISA on coated MSLN-R1; antibody 1 nM
T3 construct: Region 1 of human mesothelin, made in HEK293E cells, His-tagged; also called human MSLN-R1 protein; hMSLN-R1-his; not shown: His tag
T3 chain: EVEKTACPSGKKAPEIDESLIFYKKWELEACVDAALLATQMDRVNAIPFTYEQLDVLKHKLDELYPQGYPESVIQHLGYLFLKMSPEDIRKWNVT

[5] = molecular target: T3, human MSLN-R1-his protein; assay: ELISA on coated MSLN-R1; antibody 100 nM
Experimental: as §1

[6] = molecular target: T3, human MSLN-R1-his protein; assay: ELISA on coated MSLN-R1; no antibody (blank)
[7] = molecular target: T3, human MSLN-R1-his protein; assay: ELISA on coated MSLN-R1; antibody 0.1 nM
Experimental: as §1

[8] = molecular target: T3, human MSLN-R1-his protein; assay: ELISA on coated MSLN-R1; antibody 10 nM
Experimental: as §1

[9] = molecular target: T1, human MSLN-R2-his protein; assay: ELISA on coated MSLN-R2; antibody 10 nM
[10] = molecular target: T1, human MSLN-R2-his protein; assay: ELISA on coated MSLN-R2; antibody 0.1 nM
Experimental: as §1

[11] = molecular target: T2, human MSLN-R3-his protein; assay: ELISA on coated MSLN-R3; antibody 0.01 nM
[12] = molecular target: T2, human MSLN-R3-his protein; assay: ELISA on coated MSLN-R3; antibody 10 nM
Experimental: as §1

[13] = molecular target: T3, human MSLN-R1-his protein; assay: ELISA on coated MSLN-R1; antibody 0.001 nM
Experimental: as §1

[14] = molecular target: T1, human MSLN-R2-his protein; assay: ELISA on coated MSLN-R2; antibody 1 nM
Experimental: as §1

[15] = molecular target: T2, human MSLN-R3-his protein; assay: ELISA on coated MSLN-R3; no antibody (blank)
[16] = molecular target: T1, human MSLN-R2-his protein; assay: ELISA on coated MSLN-R2; no antibody (blank)
Experimental: as §1

[17] = molecular target: T3, human MSLN-R1-his protein; assay: ELISA on coated MSLN-R1; antibody 0.0001 nM
[18] = molecular target: T2, human MSLN-R3-his protein; assay: ELISA on coated MSLN-R3; antibody 100 nM
Experimental: as §1

[19] = molecular target: T1, human MSLN-R2-his protein; assay: ELISA on coated MSLN-R2; antibody 0.0001 nM
Experimental: as §1

[20] = molecular target: T2, human MSLN-R3-his protein; assay: ELISA on coated MSLN-R3; antibody 0.001 nM
[21] = molecular target: T2, human MSLN-R3-his protein; assay: ELISA on coated MSLN-R3; antibody 0.0001 nM
Experimental: as §1

[22] = molecular target: T2, human MSLN-R3-his protein; assay: ELISA on coated MSLN-R3; antibody 1 nM
Experimental: as §1

[23] = molecular target: T3, human MSLN-R1-his protein; assay: ELISA on coated MSLN-R1; antibody 0.01 nM
Experimental: as §1

[24] = molecular target: T1, human MSLN-R2-his protein; assay: ELISA on coated MSLN-R2; antibody 100 nM
[25] = molecular target: T4, human MSLN-R2-his protein (human, UniProt Q13421 391-486); assay: ELISA on coated antigen, antibody 0.02 nM
T4 construct: it is put last here; also called human MSLN-R2 protein; hMSLN-R2-his; not shown: His tag
T4 sequence (Q13421 other isoform, or with tags, fused parts or gaps): as the sequence (Q13421 other isoform, or with tags, fused parts or gaps) above

[26] = molecular target: T5, human MSLN-R3-his protein (human, UniProt Q13421 487-598); assay: ELISA on coated antigen, antibody 0.2 nM
T5 construct: it is put last here; also called human MSLN-R3 protein; hMSLN-R3-his; not shown: His tag
T5 sequence (Q13421 495-606): as the sequence (Q13421 495-606) above

[27] = molecular target: T4, human MSLN-R2-his protein; assay: ELISA on coated antigen, antibody 0.0002 nM
Experimental: as §1

[28] = molecular target: T4, human MSLN-R2-his protein; assay: ELISA on coated antigen, antibody 0.002 nM
Experimental: as §1

[29] = molecular target: T5, human MSLN-R3-his protein; assay: ELISA on coated antigen, antibody 0.0002 nM
[30] = molecular target: T5, human MSLN-R3-his protein; assay: ELISA on coated antigen, antibody 0.02 nM
[31] = molecular target: T4, human MSLN-R2-his protein; assay: ELISA on coated antigen, antibody 2 nM
Experimental: as §1

[32] = molecular target: T5, human MSLN-R3-his protein; assay: ELISA on coated antigen, antibody 200 nM
[33] = molecular target: T5, human MSLN-R3-his protein; assay: ELISA on coated antigen, antibody 20 nM
Experimental: as §1

[34] = molecular target: T4, human MSLN-R2-his protein; assay: ELISA on coated antigen, antibody 0.2 nM
Experimental: as §1

[35] = molecular target: T5, human MSLN-R3-his protein; assay: ELISA on coated antigen, antibody 2 nM
Experimental: as §1

[36] = molecular target: T4, human MSLN-R2-his protein; assay: ELISA on coated antigen, no antibody (blank, column 'none')
Experimental: as §1

[37] = molecular target: T4, human MSLN-R2-his protein; assay: ELISA on coated antigen, antibody 20 nM
Experimental: as §1

[38] = molecular target: T5, human MSLN-R3-his protein; assay: ELISA on coated antigen, antibody 0.002 nM
[39] = molecular target: T5, human MSLN-R3-his protein; assay: ELISA on coated antigen, no antibody (blank, column 'none')
Experimental: as §1

[40] = molecular target: T4, human MSLN-R2-his protein; assay: ELISA on coated antigen, antibody 200 nM
Experimental: as §1

B2: S009-F7.2.3 (antibody, human IgG1, kappa, V domains shown)
VH: ELQLVESGGDLVKPGGSLKLSCAASGFTFSSNGMSWLRQTPDKRLEWVATISSGGRYTYYPDSVKGRFTISRDNAKNTLYLQMSSLKSEDTAMYYCARRGIYDYFDCWGQGTTLTVSS
VL: DIQMTQSPASLSISVGETVTITCRASENIHSSLAWYQQKQGKSPQLLVYAATNLADGVPSRFSGSGSGSQYSLKINSLQSEDFGTYYCQHFWGTPWTFGGGTKLDIKR
notes: Human-murine chimeric antibody, human IgG1 heavy and kappa light constant regions
OD450 [25]: 1.22 OD | OD450 [26]: 0.06 OD | OD450 [27]: 0.14 OD | OD450 [28]: 0.41 OD | OD450 [29]: 0.06 OD | OD450 [30]: 0.06 OD | OD450 [31]: 2.37 OD | OD450 [32]: 0.2 OD | OD450 [33]: 0.1 OD | OD450 [34]: 2.12 OD | OD450 [35]: 0.07 OD | OD450 [36]: 0.06 OD | OD450 [37]: 2.38 OD | OD450 [38]: 0.06 OD | OD450 [39]: 0.07 OD | OD450 [40]: 2.74 OD

B3: S009-F7.11.11 (antibody, human IgG1, kappa, V domains shown)
VH: EVQLQQSGPELVKPGASVKIPCKASGYTITDYNMDWVKQSRGKSLEWIGDVFPYNGDSIYNQKFEGRATLTVDKYSSTAYMELRGLTSEDTAVYFCARRKTGTGYFDVWGTGTTVTVSS
VL: QLVLTQSPAIMSASPGEKVTLTCSASSSVSSTYLSWYLQKPGSSPKLWIYSTSNLASGVPARFSGSGSGTSYSLTISSMEAEDAASYFCHQWSSYPYTFGGGTKLEIKR
notes: as for B2
OD450 [25]: 0.05 OD | OD450 [26]: 1.37 OD | OD450 [27]: 0.05 OD | OD450 [28]: 0.05 OD | OD450 [29]: 0.06 OD | OD450 [30]: 0.32 OD | OD450 [31]: 0.05 OD | OD450 [32]: 3.12 OD | OD450 [33]: 2.58 OD | OD450 [34]: 0.05 OD | OD450 [35]: 2.41 OD | OD450 [36]: 0.06 OD | OD450 [37]: 0.06 OD | OD450 [38]: 0.09 OD | OD450 [39]: 0.06 OD | OD450 [40]: 0.07 OD

B5: S009-F7.6.17 (antibody, human IgG1, kappa, V domains shown)
VH: QVQLQQSGAELARPGASVKMSCKASGYTFTTYTMHWVKQRPGQGLEWIGYISPTGDFTKYNQKFKDKATLTTDKSSNTAFMQLSSLTSEDSAVYYCARWNGTVWFAYWGQGTLVTVSA
VL: DIVMTQSQKFMSTSVGDRVTVTCKASQALGTNVAWYQQKPGQSPKVLIYSASYRYSGVPYRFAGGGSGTDFTLTITNVQSEDLAEYFCQQYNNYPLTFGAGTKLELKR
notes: as for B2
OD450 [25]: 0.05 OD | OD450 [26]: 2.64 OD | OD450 [27]: 0.05 OD | OD450 [28]: 0.05 OD | OD450 [29]: 0.13 OD | OD450 [30]: 1.55 OD | OD450 [31]: 0.05 OD | OD450 [32]: 3.1 OD | OD450 [33]: 2.81 OD | OD450 [34]: 0.05 OD | OD450 [35]: 2.86 OD | OD450 [36]: 0.06 OD | OD450 [37]: 0.07 OD | OD450 [38]: 0.56 OD | OD450 [39]: 0.08 OD | OD450 [40]: 0.13 OD

Continued, values first:

OD450 [1]: 0.04 OD450 | OD450 [2]: 0.04 OD450 | OD450 [3]: 0.04 OD450 | OD450 [4]: 0.04 OD450 | OD450 [5]: 0.05 OD450 | OD450 [6]: 0.03 OD450 | OD450 [7]: 0.04 OD450 | OD450 [8]: 0.04 OD450 | OD450 [9]: 0.04 OD450 | OD450 [10]: 0.03 OD450 | OD450 [11]: 0.04 OD450 | OD450 [12]: 0.14 OD450 | OD450 [13]: 0.04 OD450 | OD450 [14]: 0.04 OD450 | OD450 [15]: 0.04 OD450 | OD450 [16]: 0.04 OD450 | OD450 [17]: 0.04 OD450 | OD450 [18]: 1.19 OD450 | OD450 [19]: 0.04 OD450 | OD450 [20]: 0.04 OD450 | OD450 [21]: 0.04 OD450 | OD450 [22]: 0.05 OD450 | OD450 [23]: 0.04 OD450 | OD450 [24]: 0.05 OD450
B1: S009-F8-36.12 (antibody, human IgG1, kappa, V domains shown)
VH: EVQLQQSGPELVKPGASVKISCKASGYTFTDYYMNWVKQSHGKSLEWIGDINPNNGGTSYNQKFKGKATLTVDKSSSTAYMELRSLTSEDSAVYYCASWGYGSSSRGYFDYWGQGTTLTVSS
VL: QIVLSQSPAILSASPGEKVTMTCRASSSVSYMHWYQQKPGSSPKPWIYATSNLASGVPARFSGSGSGTSYSLTISRVEAEDAATYYCQQWSSNPWTFGGGTKLEIKR

OD450 [25]: 0.05 OD | OD450 [26]: 1.67 OD | OD450 [27]: 0.05 OD | OD450 [28]: 0.05 OD | OD450 [29]: 0.06 OD | OD450 [30]: 0.36 OD | OD450 [31]: 0.05 OD | OD450 [32]: 2.96 OD | OD450 [33]: 2.67 OD | OD450 [34]: 0.05 OD | OD450 [35]: 2.48 OD | OD450 [36]: 0.06 OD | OD450 [37]: 0.06 OD | OD450 [38]: 0.15 OD | OD450 [39]: 0.06 OD | OD450 [40]: 0.08 OD
B4: S009-F7.12.13 (antibody, human IgG1, kappa, V domains shown)
VH: EVQLQQSGPELVKPGASVKIPCKASGYTFTDYNMDWVKQSHGKGLEWIGDINPNTDDTIYNQKFNGKATLTVDKSSSTAYMELRSLTSEDTAVYYCSRRLIGTGYFDVWGTGTTVTVSS
VL: B3 VL with L2I, S30I, S35C, L38R, K46E, S94N, E106G, I107M
notes: as for B2
